Changes are numbered by the printed parent chain. In names and notes the source's numbering stands.
B1: H183/L072 VL M27eW (antibody, name in Kabat numbering, V domains shown)
VH: QVQLVESGGGLVQPGRSLRLSCAASGFTFSNAWMHWVRQAPGKGLEWVAQIKDKGNAYAAYYAPSVKGRFTISRDDSKNSIYLQMNSLKTEDTAVYYCHYVHYASASTVLPAFGVDAWGQGTTVTVSS
VL: DIVMTQSPLSLPVTPGEPASISCQASQELVHWNRNTYLHWYQQKPGQAPRLLIYKVSNRFPGVPDRFSGSGSGTDFTLKISRVEAEDVGVYYCAQGTSVPFTFGQGTKLEIK
B2: H183/L072 VL M27eY (antibody, name in Kabat numbering, V domains shown)
VH: B1 VH
VL: B1 VL with W32Y
B3: H183/L072 VL N28A (antibody, name in Kabat numbering, V domains shown)
VH: B1 VH
VL: B1 VL with W32M, N33A
B4: H183/L072 VL N28D (antibody, name in Kabat numbering, V domains shown)
VH: B1 VH
VL: B1 VL with W32M, N33D
B5: H183/L072 VL N28E (antibody, name in Kabat numbering, V domains shown)
VH: B1 VH
VL: B1 VL with W32M, N33E
B6: H183/L072 VL N28G (antibody, name in Kabat numbering, V domains shown)
VH: B1 VH
VL: B1 VL with W32M, N33G
B7: H183/L072 VL N28H (antibody, name in Kabat numbering, V domains shown)
VH: B1 VH
VL: B1 VL with W32M, N33H
B8: H183/L072 VL N28K (antibody, name in Kabat numbering, V domains shown)
VH: B1 VH
VL: B1 VL with W32M, N33K
B9: H183/L072 VL N28Q (antibody, name in Kabat numbering, V domains shown)
VH: B1 VH
VL: B1 VL with W32M, N33Q
B10: H183/L072 VL N28S (antibody, name in Kabat numbering, V domains shown)
VH: B1 VH
VL: B1 VL with W32M, N33S
B11: H183/L072 VL N28T (antibody, name in Kabat numbering, V domains shown)
VH: B1 VH
VL: B1 VL with W32M, N33T
B12: H183/L072 VL N30A (antibody, name in Kabat numbering, V domains shown)
VH: B1 VH
VL: B1 VL with W32M, N35A
B13: H183/L072 VL N30D (antibody, name in Kabat numbering, V domains shown)
VH: B1 VH
VL: B1 VL with W32M, N35D
B14: H183/L072 VL N30E (antibody, name in Kabat numbering, V domains shown)
VH: B1 VH
VL: B1 VL with W32M, N35E
B15: H183/L072 VL N30F (antibody, name in Kabat numbering, V domains shown)
VH: B1 VH
VL: B1 VL with W32M, N35F
B16: H183/L072 VL N30G (antibody, name in Kabat numbering, V domains shown)
VH: B1 VH
VL: B1 VL with W32M, N35G
B17: H183/L072 VL N30H (antibody, name in Kabat numbering, V domains shown)
VH: B1 VH
VL: B1 VL with W32M, N35H
B18: H183/L072 VL N30I (antibody, name in Kabat numbering, V domains shown)
VH: B1 VH
VL: B1 VL with W32M, N35I

Target: T1, Human CD3eg linker (human)
T1 construct: Single-chain construct; also called recombinant human CD3
T1 chain: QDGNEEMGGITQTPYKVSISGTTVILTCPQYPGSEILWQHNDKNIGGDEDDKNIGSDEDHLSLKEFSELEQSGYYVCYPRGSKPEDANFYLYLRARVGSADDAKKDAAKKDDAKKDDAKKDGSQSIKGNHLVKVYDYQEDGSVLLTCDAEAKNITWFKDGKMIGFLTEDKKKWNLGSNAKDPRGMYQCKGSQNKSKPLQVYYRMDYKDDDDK
Test: SPR; fold vs parent H183/L072
B1 was tested, and the “fold change of affinity” value was 1 fold. B2 was tested, and the “fold change of affinity” value was 0.9 fold. For B3, the “fold change of affinity” value was 0 fold. B4 was tested, and the “fold change of affinity” value was 0 fold. For B5, the “fold change of affinity” value was 0 fold. For B6, the “fold change of affinity” value was 0 fold. B7 was tested, and the “fold change of affinity” value was 0 fold. For B8, the “fold change of affinity” value was 0 fold. With B9 the “fold change of affinity” value was 0 fold. With B10 the “fold change of affinity” value was 0 fold. With B11 the “fold change of affinity” value was 0 fold. For B12, the “fold change of affinity” value was 0.3 fold. With B13 the “fold change of affinity” value was 0.1 fold. In the case of B14, the “fold change of affinity” value is reported as 0.3 fold. In the case of B15, the “fold change of affinity” value is reported as 0.9 fold. B16 was tested, and the “fold change of affinity” value was 0 fold. For B17, the “fold change of affinity” value was 0.8 fold. In the case of B18, the “fold change of affinity” value is reported as 0.5 fold.

— patent US20210388087A1 (Chugai, published 2021)
